According to publication PMC11228995:
“And” between values parts separate entries of the source, which are not always exact repeats. Equal values may be shown once.

Legend:
CXCL4 [1] = assay: native MS; chemokine (20 μM solution in 250 mM ammonium acetate) mixed with fondaparinux at 1:1 molar ratio, nanoelectrospray, spectra deconvoluted in UniDec
CXCL4 [2] = assay: native MS; pure chemokine, 20 μM in 250 mM ammonium acetate buffer, nanoelectrospray, Waters Synapt G2-S, ion mobility separation bypassed

CXCL4 (natural protein) was tested. Which stoichiometry N (CXCL4 [1]) did it give?
Its stoichiometry N is 4 and 2.

What about the stoichiometry N (CXCL4 [2]) of the same substance?
The stoichiometry N was 4.
